The text below walks through data of publication doi:10.1101/2024.10.14.618219.

This assay concerns the target microtubules polymerized from porcine tubulin (porcine) (UniProt Q2XVP4). The assay can be described thus: single-molecule TIRF microscopy on microtubules.

Sequence of Kif3A^ΔC103-Kif3B (Q9Y496 1-596, stated change not applied): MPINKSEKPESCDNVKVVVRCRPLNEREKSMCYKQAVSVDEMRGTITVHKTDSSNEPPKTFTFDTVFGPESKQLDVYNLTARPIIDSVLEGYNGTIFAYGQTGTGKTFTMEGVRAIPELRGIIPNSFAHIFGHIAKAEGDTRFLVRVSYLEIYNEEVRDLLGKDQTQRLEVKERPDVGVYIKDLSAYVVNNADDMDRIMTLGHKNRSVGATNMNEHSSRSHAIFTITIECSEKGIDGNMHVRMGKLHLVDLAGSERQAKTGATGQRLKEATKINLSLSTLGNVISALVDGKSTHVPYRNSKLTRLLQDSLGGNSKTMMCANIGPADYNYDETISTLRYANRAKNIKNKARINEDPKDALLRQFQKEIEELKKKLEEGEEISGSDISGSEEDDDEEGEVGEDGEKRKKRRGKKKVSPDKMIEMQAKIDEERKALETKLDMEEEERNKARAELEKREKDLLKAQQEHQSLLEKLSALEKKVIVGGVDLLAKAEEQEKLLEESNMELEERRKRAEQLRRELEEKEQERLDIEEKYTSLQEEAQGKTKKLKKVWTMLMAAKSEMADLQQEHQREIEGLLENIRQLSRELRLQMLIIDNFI
Sequence of Kif3A^ΔC103-Kif3B (O15066 whole entry, stated change not applied): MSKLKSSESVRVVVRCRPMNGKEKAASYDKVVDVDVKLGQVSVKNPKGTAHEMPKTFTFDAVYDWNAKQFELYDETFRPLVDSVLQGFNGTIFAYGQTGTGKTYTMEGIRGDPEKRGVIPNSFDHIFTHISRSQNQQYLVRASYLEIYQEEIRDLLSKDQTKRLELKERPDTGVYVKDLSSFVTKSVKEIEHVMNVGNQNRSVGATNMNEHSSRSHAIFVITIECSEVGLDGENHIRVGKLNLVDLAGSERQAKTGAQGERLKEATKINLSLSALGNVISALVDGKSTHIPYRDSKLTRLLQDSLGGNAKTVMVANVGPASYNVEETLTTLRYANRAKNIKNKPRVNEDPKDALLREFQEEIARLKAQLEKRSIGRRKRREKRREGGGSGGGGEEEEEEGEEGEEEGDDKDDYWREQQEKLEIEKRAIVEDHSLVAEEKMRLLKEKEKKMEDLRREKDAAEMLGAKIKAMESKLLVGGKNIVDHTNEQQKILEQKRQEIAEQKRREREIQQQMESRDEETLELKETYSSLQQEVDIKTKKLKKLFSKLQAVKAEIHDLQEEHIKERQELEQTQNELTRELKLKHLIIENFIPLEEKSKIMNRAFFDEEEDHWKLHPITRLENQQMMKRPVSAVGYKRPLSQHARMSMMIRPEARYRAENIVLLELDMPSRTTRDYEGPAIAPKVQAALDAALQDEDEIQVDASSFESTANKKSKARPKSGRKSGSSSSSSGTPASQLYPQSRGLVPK
Sequence of Kif3A^ΔC89-Kif3B (Q9Y496 1-610, stated change not applied): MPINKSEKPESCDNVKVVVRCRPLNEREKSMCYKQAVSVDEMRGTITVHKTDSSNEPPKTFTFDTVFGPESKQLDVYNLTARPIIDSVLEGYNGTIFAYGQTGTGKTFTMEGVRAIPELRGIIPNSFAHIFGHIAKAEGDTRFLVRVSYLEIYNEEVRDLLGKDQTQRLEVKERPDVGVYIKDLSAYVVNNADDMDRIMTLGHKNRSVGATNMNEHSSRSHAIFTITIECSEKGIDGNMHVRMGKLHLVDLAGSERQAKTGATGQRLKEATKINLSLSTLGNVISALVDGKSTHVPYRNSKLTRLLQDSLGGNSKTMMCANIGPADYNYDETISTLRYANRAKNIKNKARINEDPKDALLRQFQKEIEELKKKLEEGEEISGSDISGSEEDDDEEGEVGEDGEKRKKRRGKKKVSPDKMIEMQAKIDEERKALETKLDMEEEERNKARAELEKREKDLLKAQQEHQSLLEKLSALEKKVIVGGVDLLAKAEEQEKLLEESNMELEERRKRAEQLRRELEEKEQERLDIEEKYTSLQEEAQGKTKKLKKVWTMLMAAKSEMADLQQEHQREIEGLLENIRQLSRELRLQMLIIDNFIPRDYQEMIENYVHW
Sequence of Kif3A^ΔC89-Kif3B (O15066 whole entry, stated change not applied): as the sequence (O15066 whole entry, stated change not applied) above

Consider “Kif3A^ΔC89-Kif3B (from UniProt Q9Y496 1-610; O15066 1-747) (complex)”, for which the landing rate (μm^-1 nM^-1 min^-1) came to 0.6.

Substance “Kif3A^ΔC103-Kif3B (from UniProt Q9Y496 1-596; O15066 1-747) (complex)” yielded a landing rate (μm^-1 nM^-1 min^-1) of 0.6.
